Measured values: publication PMC9618058, “A genetically encoded system for oxygen generation in living cells” (Proceedings of the National Academy of Sciences of the …, 2022)

Substrate: [O-][Cl+]O
Test: oxygen evolution in digitonin-permeabilised HeLa cells, optical oxygen meter, initial rates
Format: biochemical, Nitrospira defluvii
Details: 20 mM HEPES pH 7.2, 125 mM KCl, 2 mM K2HPO4, 1 mM MgCl2, glutamate, malate, 0.01% digitonin, air-saturated, chlorite 10 μM to 1 mM

B1: FLAG-NdCld (Nitrospira defluvii) (protein)
chain: ADREKLLTESGVYGTFATFQMDHDWWDLPGESRVISVAEVKGLVEQWSGKILVESYLLRGLSDHADLMFRVHARTLSDTQQFLSAFMGTRLGRHLTSGGLLHGVSKKPTYVAGFPESMKTELQVNGESGSRPYAIVIPIKKDAEWWALDQEARTALMQEHTQAALPYLKTVKRKLYHSTGLDDVDFITYFETERLEDFHNLVRALQQVKEFRHNRRFGHPTLLGTMSPLDEILEKFAQ
notes: codon-optimised; N-terminal FLAG kept; expressed in HeLa cells; 29 kDa; runs at 248 kDa (dimer of pentamers)
Work on B1 yielded a Km of 560 µM.
